In one series the test system is CELF1 RRM23 (Xenopus). Put plainly: ITC. The conditions noted are these: ITC: 25 mM potassium phosphate, 100 mM NaCl, pH 7.0, 25 C, 12.5 uM protein, 125 uM RNA in syringe; NMR: same buffer, 298 K, ~200-250 uM protein.
For series [1], the target named is T1, CELF1 RRM123 (Xenopus, UniProt O57406 1-214+385-489, internal_change). Briefly: ITC; n=1.64; ITC: 25 mM potassium phosphate, 100 mM NaCl, pH 7.0, 25 C, 12.5 uM protein, 125 uM RNA in syringe; NMR: same buffer, 298 K, ~200-250 uM protein. The conditions noted are these: protein: recombinant; tags: N-terminal His; single strand. Background: ITC needs no label: the signal is the heat of the interaction.

Another series addresses CELF1 RRM1 (Xenopus, UniProt O57406 16-99). Briefly: NMR PRE; ITC: 25 mM potassium phosphate, 100 mM NaCl, pH 7.0, 25 C, 12.5 uM protein, 125 uM RNA in syringe; NMR: same buffer, 298 K, ~200-250 uM protein. The settings on record: protein: recombinant; tags: His; label: MTSL on 5' 4-thiouridine; single strand.
Series [2] deals with T1, CELF1 RRM123. Briefly: ITC; n=0.67; ITC: 25 mM potassium phosphate, 100 mM NaCl, pH 7.0, 25 C, 12.5 uM protein, 125 uM RNA in syringe; NMR: same buffer, 298 K, ~200-250 uM protein. The conditions noted are these: protein: recombinant; tags: N-terminal His; single strand.
For series [3], the target named is T1, CELF1 RRM123. Briefly: ITC; n=0.83; ITC: 25 mM potassium phosphate, 100 mM NaCl, pH 7.0, 25 C, 12.5 uM protein, 125 uM RNA in syringe; NMR: same buffer, 298 K, ~200-250 uM protein. The conditions noted are these: protein: recombinant; tags: N-terminal His; hairpin, 4 bp stem, single-stranded 5' and 3' tails.
For series [4], the target named is CELF1 full-length wild type (Xenopus, UniProt O57406 1-489). Briefly: NMR; extensive line broadening; ITC: 25 mM potassium phosphate, 100 mM NaCl, pH 7.0, 25 C, 12.5 uM protein, 125 uM RNA in syringe; NMR: same buffer, 298 K, ~200-250 uM protein. The settings on record: protein: recombinant, tags: N-terminal His.
Series [5] concerns the target T1, CELF1 RRM123. Put plainly: ITC; n=0.79; ITC: 25 mM potassium phosphate, 100 mM NaCl, pH 7.0, 25 C, 12.5 uM protein, 125 uM RNA in syringe; NMR: same buffer, 298 K, ~200-250 uM protein. The conditions noted are these: protein: recombinant; tags: N-terminal His; single strand.
The target in series [6] is T1, CELF1 RRM123. Briefly: ITC; n=1.45; ITC: 25 mM potassium phosphate, 100 mM NaCl, pH 7.0, 25 C, 12.5 uM protein, 125 uM RNA in syringe; NMR: same buffer, 298 K, ~200-250 uM protein. The conditions noted are these: protein: recombinant; tags: N-terminal His; single strand.
Series [7] has as its target T1, CELF1 RRM123. Put plainly: NMR PRE; strongest PRE in RRM3; ITC: 25 mM potassium phosphate, 100 mM NaCl, pH 7.0, 25 C, 12.5 uM protein, 125 uM RNA in syringe; NMR: same buffer, 298 K, ~200-250 uM protein. The conditions noted are these: protein: recombinant; tags: N-terminal His; label: MTSL on 3' 4-thiouridine; single strand.
Series [8] addresses T1, CELF1 RRM123. Put plainly: ITC; n=1.19; text gives 1.50 +/- 0.28; ITC: 25 mM potassium phosphate, 100 mM NaCl, pH 7.0, 25 C, 12.5 uM protein, 125 uM RNA in syringe; NMR: same buffer, 298 K, ~200-250 uM protein. The settings on record: protein: recombinant; tags: N-terminal His; single strand.
The target in series [9] is T1, CELF1 RRM123. Briefly: NMR PRE; strongest PRE in RRM2; ITC: 25 mM potassium phosphate, 100 mM NaCl, pH 7.0, 25 C, 12.5 uM protein, 125 uM RNA in syringe; NMR: same buffer, 298 K, ~200-250 uM protein. The settings on record: protein: recombinant; tags: N-terminal His; label: MTSL on 5' 4-thiouridine; single strand.
Series [10] addresses T1, CELF1 RRM123. Briefly: ITC; n=0.85; ITC: 25 mM potassium phosphate, 100 mM NaCl, pH 7.0, 25 C, 12.5 uM protein, 125 uM RNA in syringe; NMR: same buffer, 298 K, ~200-250 uM protein. The conditions noted are these: protein: recombinant; tags: N-terminal His; single strand.

T1 sequence (O57406 other isoform, or with tags, fused parts or gaps): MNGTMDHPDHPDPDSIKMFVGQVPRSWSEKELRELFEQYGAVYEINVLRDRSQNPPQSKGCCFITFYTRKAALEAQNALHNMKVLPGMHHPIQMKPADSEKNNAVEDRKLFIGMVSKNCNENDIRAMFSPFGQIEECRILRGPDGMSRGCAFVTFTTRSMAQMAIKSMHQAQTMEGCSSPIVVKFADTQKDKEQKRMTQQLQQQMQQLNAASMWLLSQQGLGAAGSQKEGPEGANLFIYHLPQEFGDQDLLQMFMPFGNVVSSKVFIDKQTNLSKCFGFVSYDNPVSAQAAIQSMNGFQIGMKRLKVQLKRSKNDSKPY
Chain of CELF1 full-length wild type (O57406 whole entry): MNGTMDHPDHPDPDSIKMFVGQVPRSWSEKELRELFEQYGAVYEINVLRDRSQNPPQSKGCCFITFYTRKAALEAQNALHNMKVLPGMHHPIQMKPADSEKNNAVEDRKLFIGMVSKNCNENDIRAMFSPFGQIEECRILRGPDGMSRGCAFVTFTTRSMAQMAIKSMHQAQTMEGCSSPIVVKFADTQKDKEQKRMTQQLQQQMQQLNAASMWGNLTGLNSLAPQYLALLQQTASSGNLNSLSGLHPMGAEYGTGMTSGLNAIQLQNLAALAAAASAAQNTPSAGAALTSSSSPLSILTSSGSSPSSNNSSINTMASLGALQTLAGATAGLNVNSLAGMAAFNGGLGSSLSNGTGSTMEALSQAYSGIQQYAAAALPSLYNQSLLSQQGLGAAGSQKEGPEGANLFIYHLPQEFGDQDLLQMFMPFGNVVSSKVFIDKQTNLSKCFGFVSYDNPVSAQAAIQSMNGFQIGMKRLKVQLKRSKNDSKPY
Chain of CELF1 RRM1 (O57406 16-99): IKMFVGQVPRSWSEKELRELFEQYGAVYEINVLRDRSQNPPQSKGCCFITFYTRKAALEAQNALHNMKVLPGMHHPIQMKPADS

For the molecule RNA with UGU(U) site used with RRM23, the Kd (as a rule, the constant that tells how readily two partners part at equilibrium) in the series with CELF1 RRM23 (Xenopus) was determined as 520 nM.
For UGUUUUUUGU (ssRNA) [EDEN-4U], in the series with CELF1 RRM123 [1], the dissociation constant Kd came out at 2080 ± 400 nM.
As to UUGU (ssRNA, 5'-terminal 4-thiouridine) [5'-U*UGU], the binding result with CELF1 RRM1 is on record as “binds”.
For the molecule UGUUUUUUGUUUUGU (ssRNA) [EDEN-4U/2U], the Kd in the series with CELF1 RRM123 [2] came out at 980 ± 120 nM.
For UGUUUUGUUCCCGAGGACGGGUUGU (structured_RNA) [EDEN-2U/HL], the Kd with CELF1 RRM123 [3] stood at 550 ± 80 nM. Moreover, the binding result in series [4] (hairpin, 4 bp stem, single-stranded 5' and 3' tails) was “binds”.
On to UGUAUGUGUUGUUUUAUGU (ssRNA) [EDEN19], for which the Kd in the series with CELF1 RRM123 [5] turned out to be 330 ± 70 nM.
Consider UGUUUGUUUGU (ssRNA) [EDEN11 (GRE)], for which the Kd with CELF1 RRM123 [6] is 2200 ± 300 nM.
Regarding UGUUUUGUUUUUUGUU (ssRNA, 3'-terminal 4-thiouridine (taken as an additional nucleotide; not explicit)) [3'-U* EDEN-2U/4U], in the series with CELF1 RRM123 [7], the binding result was “binds”.
On to UGUUUUGUUUGU (ssRNA) [EDEN-2U/1U], for which, in the series with CELF1 RRM123 [8], the Kd was found to be 1490 ± 230 nM.
On to UUGUUUUGUUUUUUGU (ssRNA, additional 5'-terminal 4-thiouridine) [5'-U* EDEN-2U/4U], for which, in the series with CELF1 RRM123 [9], the binding result is listed as “binds”.
UGUUUUGUUUUUUGU (ssRNA) [EDEN-2U/4U]: the Kd with CELF1 RRM123 [10] amounted to 110 ± 20 nM. In series [4] (single strand), the binding result is listed as “binds”.

The record behind these values is article PMC3737555, “Structural insights into the targeting of mRNA GU-rich elements by the three RRMs of CELF1”.
